Results as given in publication PMC10165876.

Tests used:
[1] = target: MYC-tagged NKp46 (extracellular domain) (human) (UniProt O76036); assay: MST
[2] = target: NKp46–Ig (ACROBiosystems), used for MST and BLI (human) (UniProt O76036); assay: MST

| Substance | Kd [1] | Kd [2] |
| --- | --- | --- |
| CRT P domain fused to the Fc region of human Ig (Fc fusion) | 41.2 µM | – |
| influenza haemagglutinin, His-tagged (natural protein) | – | 1.46 µM |
